According to the supplement of paper PMC9112550, “Optimization of the antimicrobial peptide Bac7 by deep mutational scanning” (BMC Biology, 2022):

system: Escherichia coli TOP10; assay: shrunken log2 fold change of peptide-encoding DNA abundance (4.5 h post-induction vs induction); higher = less antimicrobial activity (less host growth inhibition); settings: time post-induction: 4.5 h; library: site-saturation at positions 5, 18, 19, 20
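Note: peptides expressed intracellularly from a pBAD plasmid library in pooled LB shake-flask culture, induced with 0.3% L-arabinose, DNA abundance read by NGS, three biological replicates, DESeq2 with apeglm shrinkage.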

| Sequence | shrunken log2 fold change |
| --- | --- |
| RRIRSRPPRLPRPRPRPHENPRP | 0.0415 |
| RRIRYRPPRLPRPRPRPCPVPRP | -0.143 |
| RRIRSRPPRLPRPRPRPHDWPRP | -0.323 |
| RRIRIRPPRLPRPRPRPMNPPRP | -0.372 |
| RRIRIRPPRLPRPRPRPMKCPRP | -0.0692 |
| RRIRHRPPRLPRPRPRPDRYPRP | -0.236 |
| RRIRFRPPRLPRPRPRPPLKPRP | 0.266 |
| RRIRVRPPRLPRPRPRPQKWPRP | 0.202 |
| RRIRLRPPRLPRPRPRPHEFPRP | -0.0833 |
| RRIRMRPPRLPRPRPRPTRNPRP | 0.212 |
| RRIRRRPPRLPRPRPRPDVRPRP | 0.0483 |
| RRIRFRPPRLPRPRPRPSKQPRP | -0.101 |
| RRIRMRPPRLPRPRPRPGSYPRP | 0.124 |
| RRIRVRPPRLPRPRPRPLEAPRP | 0.242 |
| RRIRNRPPRLPRPRPRPPIWPRP | -0.129 |
| RRIRFRPPRLPRPRPRPKEFPRP | -0.0812 |
| RRIRLRPPRLPRPRPRPGTMPRP | -0.0422 |
| RRIRSRPPRLPRPRPRPDCHPRP | -0.0994 |
| RRIRNRPPRLPRPRPRPKINPRP | -0.387 |
| RRIRMRPPRLPRPRPRPIIKPRP | -0.265 |
| RRIRGRPPRLPRPRPRPGDQPRP | 0.777 |
| RRIRKRPPRLPRPRPRPKDNPRP | 0.297 |
| RRIRWRPPRLPRPRPRPQPGPRP | 0.221 |
| RRIRCRPPRLPRPRPRPYHAPRP | -0.585 |
| RRIRYRPPRLPRPRPRPFHTPRP | -0.128 |

| Sequence | shrunken log2 fold change |
| --- | --- |
| RRIRYRPPRLPRPRPRPMHAPRP | 0.495 |
| RRIRGRPPRLPRPRPRPQMDPRP | 0.291 |
| RRIRTRPPRLPRPRPRPMYDPRP | -0.161 |
| RRIRLRPPRLPRPRPRPNQPPRP | 0.0224 |
| RRIRKRPPRLPRPRPRPFLNPRP | 0.00977 |
| RRIRLRPPRLPRPRPRPGQSPRP | 0.0614 |
| RRIRERPPRLPRPRPRPSRFPRP | 0.17 |
| RRIRMRPPRLPRPRPRPALLPRP | 0.727 |
| RRIRSRPPRLPRPRPRPKVGPRP | 0.176 |
| RRIRTRPPRLPRPRPRPGHIPRP | -0.289 |
| RRIRKRPPRLPRPRPRPSEAPRP | 0.401 |
| RRIRFRPPRLPRPRPRPEWLPRP | 0.402 |
| RRIRPRPPRLPRPRPRPHPDPRP | -0.0791 |
| RRIRVRPPRLPRPRPRPVYYPRP | -0.696 |
| RRIRERPPRLPRPRPRPEKNPRP | -0.126 |
| RRIRARPPRLPRPRPRPVNWPRP | 0.459 |
| RRIRTRPPRLPRPRPRPSEFPRP | -0.369 |
| RRIRPRPPRLPRPRPRPSPLPRP | 0.0443 |
| RRIRGRPPRLPRPRPRPPYWPRP | 0.355 |
| RRIRTRPPRLPRPRPRPGFQPRP | -0.0547 |
| RRIRWRPPRLPRPRPRPHRSPRP | -0.243 |
| RRIRCRPPRLPRPRPRPRVPPRP | -0.0115 |
| RRIRWRPPRLPRPRPRPWFIPRP | -0.436 |
| RRIRKRPPRLPRPRPRPNKCPRP | -0.106 |
| RRIRTRPPRLPRPRPRPFHKPRP | 0.0244 |

| Sequence | shrunken log2 fold change |
| --- | --- |
| RRIRYRPPRLPRPRPRPDRLPRP | -0.216 |
| RRIRPRPPRLPRPRPRPTEDPRP | -0.18 |
| RRIRDRPPRLPRPRPRPNECPRP | 0.0169 |
| RRIRGRPPRLPRPRPRPYIQPRP | -0.411 |
| RRIRKRPPRLPRPRPRPDCIPRP | 0.75 |
| RRIRQRPPRLPRPRPRPYGEPRP | -0.0137 |
| RRIRCRPPRLPRPRPRPVDRPRP | 0.0626 |
| RRIRCRPPRLPRPRPRPHNWPRP | -0.00871 |
| RRIRYRPPRLPRPRPRPSCNPRP | -1.43 |
| RRIRYRPPRLPRPRPRPFVEPRP | -1.17 |
| RRIRIRPPRLPRPRPRPCWTPRP | -0.281 |
| RRIRKRPPRLPRPRPRPCLVPRP | 0.123 |
| RRIRDRPPRLPRPRPRPDFTPRP | -0.0299 |
| RRIRERPPRLPRPRPRPGFKPRP | -0.324 |
| RRIRYRPPRLPRPRPRPPAKPRP | 0.441 |
| RRIRDRPPRLPRPRPRPCALPRP | -0.0616 |
| RRIRCRPPRLPRPRPRPCMEPRP | -0.681 |
| RRIRWRPPRLPRPRPRPQIGPRP | 0.0807 |
| RRIRLRPPRLPRPRPRPVVIPRP | -0.0403 |
| RRIRTRPPRLPRPRPRPAITPRP | -0.44 |
| RRIRIRPPRLPRPRPRPTRKPRP | -0.101 |
| RRIRMRPPRLPRPRPRPMMCPRP | -0.0746 |
| RRIRYRPPRLPRPRPRPSEVPRP | -0.177 |
| RRIRSRPPRLPRPRPRPFWKPRP | -0.125 |
| RRIRTRPPRLPRPRPRPMQEPRP | -0.0701 |

| Sequence | shrunken log2 fold change |
| --- | --- |
| RRIRTRPPRLPRPRPRPHLEPRP | -0.0891 |
| RRIRMRPPRLPRPRPRPQQTPRP | 1.14 |
| RRIRFRPPRLPRPRPRPFQMPRP | -0.647 |
| RRIRSRPPRLPRPRPRPASPPRP | -0.0809 |
| RRIRFRPPRLPRPRPRPMKTPRP | -0.0807 |
| RRIRLRPPRLPRPRPRPGICPRP | 0.126 |
| RRIRLRPPRLPRPRPRPYQIPRP | -0.489 |
| RRIRERPPRLPRPRPRPREVPRP | 0.13 |
| RRIRSRPPRLPRPRPRPCVKPRP | -0.414 |
| RRIRYRPPRLPRPRPRPRIVPRP | -0.369 |
| RRIRRRPPRLPRPRPRPAHWPRP | 0.672 |
| RRIRQRPPRLPRPRPRPKAAPRP | -0.0496 |
| RRIRRRPPRLPRPRPRPNGIPRP | -0.0555 |
| RRIRWRPPRLPRPRPRPWMSPRP | -0.353 |
| RRIRSRPPRLPRPRPRPCFDPRP | 0.11 |
| RRIRSRPPRLPRPRPRPVWKPRP | -0.1 |
| RRIRIRPPRLPRPRPRPPWDPRP | 0.0808 |
| RRIRCRPPRLPRPRPRPTWPPRP | 0.371 |
| RRIRNRPPRLPRPRPRPSNRPRP | -0.138 |
| RRIRMRPPRLPRPRPRPAQIPRP | -0.0435 |
| RRIRCRPPRLPRPRPRPRCGPRP | 0.191 |
| RRIRPRPPRLPRPRPRPQMGPRP | -0.0457 |
| RRIRMRPPRLPRPRPRPCTRPRP | -0.0828 |
| RRIRPRPPRLPRPRPRPWCCPRP | -0.0996 |
| RRIRCRPPRLPRPRPRPLYGPRP | -0.914 |

| Sequence | shrunken log2 fold change |
| --- | --- |
| RRIRWRPPRLPRPRPRPDYGPRP | -0.202 |
| RRIRARPPRLPRPRPRPHGMPRP | 0.238 |
| RRIRARPPRLPRPRPRPSQKPRP | 0.106 |
| RRIRGRPPRLPRPRPRPIQGPRP | -0.0132 |
| RRIRNRPPRLPRPRPRPVCLPRP | -0.453 |
| RRIRVRPPRLPRPRPRPWKGPRP | 0.103 |
| RRIRFRPPRLPRPRPRPDSMPRP | -0.715 |
| RRIRMRPPRLPRPRPRPLPQPRP | 0.742 |
| RRIRVRPPRLPRPRPRPSHFPRP | -0.443 |
| RRIRVRPPRLPRPRPRPSFMPRP | -0.384 |
| RRIRYRPPRLPRPRPRPMDHPRP | -0.237 |
| RRIRTRPPRLPRPRPRPAQMPRP | 0.0652 |
| RRIRQRPPRLPRPRPRPWFQPRP | -0.0867 |
| RRIRHRPPRLPRPRPRPIGAPRP | 0.173 |
| RRIRFRPPRLPRPRPRPGFYPRP | -0.28 |
| RRIRQRPPRLPRPRPRPRARPRP | 0.579 |
| RRIRFRPPRLPRPRPRPAQAPRP | 0.29 |
| RRIRHRPPRLPRPRPRPQANPRP | 0.0174 |
| RRIRVRPPRLPRPRPRPECMPRP | 0.283 |
| RRIRMRPPRLPRPRPRPACRPRP | 0.633 |
| RRIRGRPPRLPRPRPRPIYKPRP | -0.071 |
| RRIRHRPPRLPRPRPRPGGRPRP | 0.0167 |
| RRIRGRPPRLPRPRPRPESIPRP | 0.483 |
| RRIRMRPPRLPRPRPRPDNDPRP | 1.41 |
| RRIRPRPPRLPRPRPRPWFDPRP | -0.278 |

| Sequence | shrunken log2 fold change |
| --- | --- |
| RRIRPRPPRLPRPRPRPKGLPRP | 0.062 |
| RRIRGRPPRLPRPRPRPKLAPRP | 1.67 |
| RRIRDRPPRLPRPRPRPNWQPRP | 0.00408 |
| RRIRDRPPRLPRPRPRPFNEPRP | 0.0103 |
| RRIRERPPRLPRPRPRPNGKPRP | -0.0394 |
| RRIRYRPPRLPRPRPRPSCLPRP | -0.56 |
| RRIRQRPPRLPRPRPRPQHKPRP | -0.205 |
| RRIRGRPPRLPRPRPRPQCNPRP | 0.203 |
| RRIRCRPPRLPRPRPRPWWPPRP | 0.0266 |
| RRIRNRPPRLPRPRPRPHDPPRP | -0.202 |
| RRIRDRPPRLPRPRPRPDNMPRP | 0.0341 |
| RRIRFRPPRLPRPRPRPKQPPRP | 0.137 |
| RRIRGRPPRLPRPRPRPKEEPRP | 1.58 |
| RRIRARPPRLPRPRPRPSDEPRP | 0.324 |
| RRIRYRPPRLPRPRPRPRCMPRP | -0.425 |
| RRIRYRPPRLPRPRPRPKPVPRP | 0.218 |
| RRIRFRPPRLPRPRPRPLTDPRP | -0.143 |
| RRIRDRPPRLPRPRPRPHNMPRP | -0.135 |
| RRIRQRPPRLPRPRPRPMNIPRP | -0.809 |
| RRIRTRPPRLPRPRPRPAEFPRP | -0.355 |
| RRIRQRPPRLPRPRPRPHRLPRP | -0.0506 |
| RRIRQRPPRLPRPRPRPKIMPRP | -0.668 |
| RRIRERPPRLPRPRPRPECTPRP | 0.187 |
| RRIRWRPPRLPRPRPRPAWQPRP | 0.427 |
| RRIRFRPPRLPRPRPRPATFPRP | -0.207 |
